From publication PMC4740771, “Nucleotide-dependent assembly of the peroxisomal receptor export complex” (Scientific Reports, 2016)

T1: HisPex6p (S. cerevisiae, UniProt P33760 1-1030)
T1 construct: Pex6p, type II AAA-ATPase peroxin of yeast; also called single Pex6p; isolated Pex6p; source: E. coli Tuner (DE3), purified (NiNTA-agarose; with HisPex1pGST also GSH-agarose and size exclusion); not shown: His6, N-terminal, kept
T1 sequence (looked up): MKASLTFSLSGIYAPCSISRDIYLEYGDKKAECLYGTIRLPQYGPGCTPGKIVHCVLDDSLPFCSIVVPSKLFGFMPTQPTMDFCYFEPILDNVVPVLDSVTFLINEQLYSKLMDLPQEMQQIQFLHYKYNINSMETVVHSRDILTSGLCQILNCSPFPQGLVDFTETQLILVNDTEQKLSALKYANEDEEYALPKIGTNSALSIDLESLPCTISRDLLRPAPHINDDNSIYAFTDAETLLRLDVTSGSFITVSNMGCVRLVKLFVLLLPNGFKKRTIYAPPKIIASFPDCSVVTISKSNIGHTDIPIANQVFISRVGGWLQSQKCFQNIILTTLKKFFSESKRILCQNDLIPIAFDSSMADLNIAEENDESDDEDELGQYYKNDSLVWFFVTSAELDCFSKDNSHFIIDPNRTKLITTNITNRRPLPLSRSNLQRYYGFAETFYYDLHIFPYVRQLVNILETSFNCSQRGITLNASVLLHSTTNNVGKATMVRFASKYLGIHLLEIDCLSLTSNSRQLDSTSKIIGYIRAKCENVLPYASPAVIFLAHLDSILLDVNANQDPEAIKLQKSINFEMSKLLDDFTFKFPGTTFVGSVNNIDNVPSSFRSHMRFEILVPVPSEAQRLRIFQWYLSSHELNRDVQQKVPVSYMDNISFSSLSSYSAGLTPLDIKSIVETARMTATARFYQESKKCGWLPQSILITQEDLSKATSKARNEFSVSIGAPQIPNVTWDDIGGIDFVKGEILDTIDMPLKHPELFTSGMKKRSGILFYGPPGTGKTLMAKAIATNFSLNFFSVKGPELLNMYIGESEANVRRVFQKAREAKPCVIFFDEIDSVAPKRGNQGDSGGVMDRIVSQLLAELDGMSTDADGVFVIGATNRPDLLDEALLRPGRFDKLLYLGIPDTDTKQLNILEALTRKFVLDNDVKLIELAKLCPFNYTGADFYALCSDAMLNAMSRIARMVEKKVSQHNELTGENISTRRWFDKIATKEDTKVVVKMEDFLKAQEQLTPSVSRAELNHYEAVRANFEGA

B1: HisPex1p released from HisPex1pGST by thrombin (natural protein, S. cerevisiae, UniProt P24004 1-1043, looked up)
chain: MTTTKRLKFENLRIQFSNAIVGNFLRLPHSIINVLESTNYAIQEFGIAVHSHNSDIPIVHLGWDGHDSGSSENVVLINPVLATVYDLNQKSPLVDLYIQRYDHTHLATEVYVTPETSDDWEIIDANAMRFQNGEILHQTRIVTPGETLICYLEGIVTKFKIDRVEPSMKSARITDGSLVVVAPKVNKTRLVKAEYGHSNKTILKNGAIQLLKKVILRSTVCKMDFPKDNLFVVYISDGAQLPSQKGYASIVKCSLRQSKKSDSDNKSVGIPSKKIGVFIKCDSQIPENHIALSSHLWDAFFTHPMNGAKIKLEFLQMNQANIISGRNATVNIKYFGKDVPTKSGDQYSKLLGGSLLTNNLILPTEQIIIEIKKGESEQQLCNLNEISNESVQWKVTQMGKEEVKDIIERHLPKHYHVKETGEVSRTSKDEDDFITVNSIKKEMVNYLTSPIIATPAIILDGKQGIGKTRLLKELINEVEKDHHIFVKYADCETLHETSNLDKTQKLIMEWCSFCYWYGPSLIVLDNVEALFGKPQANDGDPSNNGQWDNASKLLNFFINQVTKIFNKDNKRIRVLFSGKQKTQINPLLFDKHFVSETWSLRAPDKHARAKLLEYFFSKNQIMKLNRDLQFSDLSLETEGFSPLDLEIFTEKIFYDLQLERDCDNVVTRELFSKSLSAFTPSALRGVKLTKETNIKWGDIGALANAKDVLLETLEWPTKYEPIFVNCPLRLRSGILLYGYPGCGKTLLASAVAQQCGLNFISVKGPEILNKFIGASEQNIRELFERAQSVKPCILFFDEFDSIAPKRGHDSTGVTDRVVNQLLTQMDGAEGLDGVYILAATSRPDLIDSALLRPGRLDKSVICNIPTESERLDILQAIVNSKDKDTGQKKFALEKNADLKLIAEKTAGFSGADLQGLCYNAYLKSVHRWLSAADQSEVVPGNDNIEYFSINEHGRREENRLRLKTLLQQDVVHETKTSTSAASELTAVVTINDLLEACQETKPSISTSELVKLRGIYDRFQKDRNGEMPNGENSIDIGSRLSLM
notes: Pex1p, type II AAA-ATPase peroxin of yeast; The GST tag held the complex on GSH-agarose during purification and stayed on the column after thrombin cleavage; source: E. coli Tuner (DE3), co-purified with HisPex6p (NiNTA-agarose, GSH-agarose, thrombin release); not shown: His6, N-terminal, kept; GST, C-terminal, cleaved
B2: GST-Pex15p(1-315)His (domain or fragment, S. cerevisiae, UniProt Q08215 1-315, looked up)
chain: MAASEIMNNLPMHSLDSSLRDLLNDDLFIESDESTKSVNDQRSEVFQECVNLFIKRDIKDCLEKMSEVGFIDITVFKSNPMILDLFVSACDIMPSFTKLGLTLQSEILNIFTLDTPQCIETRKIILGDLSKLLVINKFFRCCIKVIQFNLTDHTEQEEKTLELESIMSDFIFVYITKMRTTIDVVGLQELIEIFIFQVKVKLHHKKPSPNMYWALCKTLPKLSPTLKGLYLSKDVSIEDAILNSIDNKIQKDKAKSKGKQRGVKQKIHHFHEPMLHNSSEEQVKVEDAFNQRTSTDSRLQSTGTAPRKKNNDITV
notes: Pex15p, tail-anchored peroxisomal membrane protein of S. cerevisiae (genomic DNA of strain UTL-7A), cytosolic part, residues 1 to 315; also called cytosolic domain of Pex15p; source: E. coli BL21 (DE3), purified (Glutathione Agarose 4B, dialysis); not shown: GST, N-terminal, kept; His6, C-terminal, kept

Legend:
[1] = target: the molecule itself; test: SEC; as a1 but isolated and run in the presence of 5 mM ADP instead of ATP
HisPex6p = target: T1, HisPex6p; test: pull-down; GST-Pex15p(1-315)His incubated with purified proteins, loaded on GSH-agarose, eluted with glutathione; 5 mM ATP; Coomassie and immunoblot, signal intensities of load and eluate; settings: both partners purified
[2] = target: T2, Pex1/6p-complex (recombinant heterohexameric AAA-complex) (S. cerevisiae, UniProt P24004 1-1043; P33760 1-1030); test: as above; settings: both partners purified
T2 construct: Pex1p of yeast, as the chain of m3; Pex6p of yeast, as the chain of m2; Described as a trimer of Pex1/6p dimers (heterohexamer, about 700 kDa); Isolated in 5 mM ATP or 5 mM ADP as said for each assay; also called Pex1p/Pex6p-complex; wild-type Pex1/6p; source: E. coli Tuner (DE3), cells mixed and lysed, co-purified (NiNTA-agarose, GSH-agarose, thrombin release, size exclusion); not shown: His6, …

[3] = target: T3, Pex1WB/6p complex (Pex1p E798Q with wild-type Pex6p) (S. cerevisiae, UniProt P24004 1-1043; P33760 1-1030, E798Q); test: as above; settings: both partners purified
T3 construct: Pex1p of yeast with the Walker B mutation of the D2 domain; Pex6p of yeast, as the chain of m2; also called Pex1WB^E798Q/6p; not shown: His6, N-terminal, kept; GST, C-terminal, cleaved; copies: 3 + 3

[4] = target: T4, Pex1/6pWB complex (wild-type Pex1p with Pex6p E832Q) (S. cerevisiae, UniProt P24004 1-1043; P33760 1-1030, E832Q); test: as above; settings: both partners purified
T4 construct: Pex1p of yeast, as the chain of m3; Pex6p of yeast with the Walker B mutation of the D2 domain; also called Pex1p/Pex6pWB; Pex6WB mutant complex; not shown: His6, N-terminal, kept; GST, C-terminal, cleaved; copies: 3 + 3

| Binder | stoichiometry N [1] | binding result (HisPex6p) | binding result [2] | binding result [3] | binding result [4] |
| --- | --- | --- | --- | --- | --- |
| B1 | 3 |  |  |  |  |
| B2 |  | binds | binds | binds | binds |
